Measured values reported in patent publication US12685781B2, “Anti-HER3 antibody-drug conjugate” (DAIICHI SANKYO COMPANY, LIMITED, priority 2014, dated 2026).

Target: HER3 (Homo sapiens, UniProt P21860)
Assay: Inhibition of HER3 signal, Western blotting in A549 cells
Type: cell-based
Protocol: A human lung cancer cell line A549 (CRS-300114) from Cell Lines Service was dissociated by trypsin treatment, and 50,000 living cells were inoculated to 3 mL of DMEM/F12 (Invitrogen Corp., #21331-020)+10% FBS (Invitrogen Corp., #10270-106) in each of 6 wells. After culturing the cells for 3 days, the medium was replaced with 2 mL of a fresh medium.
The antibody or each antibody-drug conjugate was added directly to 2 mL of a medium in each of the 6 wells such that the final concentration was 10 ug/mL (20 uL of a stock solution of 1 ug/uL antibody or antibody-drug conjugate was added).
U1-59, the antibody-drug conjugate (3), the antibody-drug conjugate (10), or the antibody-drug conjugate (13) was used as the antibody or the antibody-drug conjugate. An untreated group was used as a control.
The cells were cultured for 2 days, washed once with PBS, and treated with 100 uL of an ice-cooled buffer (50 mM 4-(2-hydroxyethyl)-1-piperazineethanesulfonic acid (HEPES), pH 7.5, 150 mM sodium chloride, 1 mM ethylenediaminetetraacetic acid (EDTA), 12.5% glycerin, 1% Triton X-100, and 10 mM sodium pyrophosphate tetrabasic supplemented with proteinase inhibitors (Roche Diagnostics, Inc., #11697 498 001), 10 mM sodium fluoride, 1 mM sodium vanadate, 1 mM phenyl-methane-sulfonyl-fluoride (PMSF), and 10 ug/mL aprotinin (Sigma-Aldrich Co. LLC, A1153)) for 30 minutes at 4 C for lysis. […]

HER3 phosphorylation compared with untreated cells (A549, 10 ug/mL, 2 days): reduced
Substance: U1-59: anti-HER3 human antibody; heavy and light chain variable regions SEQ ID NOs: 70 and 72; produced per WO 2007/077028
HER3 expression compared with untreated cells (A549, 2 days): reduction in HER3 expression was also observed
